Results published in publication PMC10513939, “Phylogenetic and functional analysis of cyanobacterial Cytochrome c 6-like proteins” (Frontiers in Plant Science, 2023).
Each block holds one binder with its values, some of them ahead of it.

Tests used:
[1] = target: T1, Cytochrome f (soluble form, subunit of the cytochrome b 6 f complex) (Nostoc sp. PCC 7119, UniProt Q93SW9 45-298, heme group; reduced for ITC); experiment: ITC
T1 chain: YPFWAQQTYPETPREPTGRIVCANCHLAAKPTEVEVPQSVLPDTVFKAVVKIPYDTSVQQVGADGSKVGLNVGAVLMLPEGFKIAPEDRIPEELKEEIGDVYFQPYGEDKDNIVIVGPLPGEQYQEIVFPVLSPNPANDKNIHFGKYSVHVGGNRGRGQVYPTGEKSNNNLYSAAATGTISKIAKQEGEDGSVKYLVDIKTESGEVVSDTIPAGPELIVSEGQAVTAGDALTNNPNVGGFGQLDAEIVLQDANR

[2] = target: T1, Cytochrome f (soluble form, subunit of …); experiment: ITC
[3] = target: Cytochrome f (soluble form, subunit of the cytochrome b 6 f complex) (Nostoc sp. PCC 7119) (UniProt Q93SW9); experiment: ITC; oxidised Cyt c 6, c 6BC or c 6D (400 uM) injected (2 uL injections) into reduced Cyt f (40 uM) in the cell; 5 mM phosphate buffer pH 7.5, 0.02% (w/v) Triton X-100, 25 °C; single binding site model
[4] = target: T2, Cytochrome f (soluble form, subunit of the cytochrome b 6 f complex) (Nostoc sp. PCC 7119, UniProt Q93SW9 45-298, heme group; reduced for ITC); experiment: as above; settings: both partners purified
T2 construct: Cytochrome f, subunit of the cytochrome b6f complex, soluble form heterologously expressed; construct as described in earlier work (Albarran et al., 2005); PCC 7120; Soluble form: as far as I recall, the lumenal domain without the C-terminal membrane anchor and without the signal peptide; also called Cyt f; soluble Cyt f; source: E. coli co-transformed with pEC86, extracted from the periplasmic …
T2 sequence (looked up): T1 chain

- Ka [1]: 500000 M⁻¹
- Kd [2]: 2 µM
- fold higher KA and fold lower KD than for Cyt c 6 and Cyt c 6BC with Cyt f [3]: 6 fold
- stoichiometry N [3]: 1
B1: Cytochrome c 6D (natural protein)
chain: AELPTGAKIFNNNCASCHIGGGNILISEKTLKKEALLKYLEDYETNSIQAIIHQIQYGKNAMPAFKDKLSTEEILEVAAYIFQKAEKDWSNLEKEG
modifications: heme group; oxidised for ITC

- Ka [1]: 78000 M⁻¹
- stoichiometry N [4]: 1
- Kd [2]: 13 µM
B2: Cytochrome c 6 (natural protein, Nostoc sp. PCC 7119, UniProt P0A3X8 26-111, looked up)
chain: ADSVNGAKIFSANCASCHAGGKNLVQAQKTLKKADLEKYGMYSAEAIIAQVTNGKNAMPAFKGRLKPEQIEDVAAYVLGKADADWK
modifications: heme group; oxidised for ITC
notes: Cytochrome c6 (petJ) of Nostoc sp; PCC 7119; also called Cyt c 6; source: E. coli co-transformed with pEC86, extracted from the periplasmic fraction, purified (ion exchange chromatography)

- Ka [1]: 89000 M⁻¹
- Kd [2]: 11 µM
- stoichiometry N [3]: 1
B3: Cytochrome c 6BC (natural protein)
chain: ENTINGEQIFSVHCAGCHINGSNIIRRGKNLQKKTLKKYGMDSLEAIEAIVTNGKNNMSAYKDRLSEQEIQDVAAYVLEQAEKGWR
modifications: heme group; oxidised for ITC
